± gives the uncertainty stated by the source.
Test: protein stability index of a GFP-peptide fusion (yeast GPS) (PSI 1-4); higher = more stable; sorted into four equal gates, so the index is relative within each strain
How it was run: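 Tiled 17-residue peptides from yeast proteins were fused downstream of GFP on a plasmid that also expresses Cherry, and the pooled library was carried in yeast. Mid-log cultures grown in leucine-free medium were sorted into four equal gates by GFP/Cherry fluorescence ratio. Plasmids from each gate were PCR-amplified and Illumina-sequenced, and reads were assigned to strains by barcodes. Each peptide's protein stability index is the sum, over gates, of the gate's read frequency multiplied by its gate number.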

| Sequence | protein stability index (doa10∆) | protein stability index (pdr5∆) | protein stability index (san1∆) | protein stability index (ubr1∆) |
| --- | --- | --- | --- | --- |
| QFVPELKEFTAKLRKEL [FAS2] | 1.53 ± 0.061 | 1.61 ± 0.043 | 1.53 ± 0.1 | 1.57 ± 0.026 |
| GSKKGQEGKISSVYRLK [RPL26A] | 3.15 ± 0.11 | 2.94 ± 0.096 | 2.7 ± 0.086 | 3.33 ± 0.11 |
| LTLKEAELLVLKILKQV [PUP2] | 2.05 ± 0.29 | 2.4 ± 0.26 |  | 1.63 ± 0.25 |
| GLVHDLCHPKKEKYGLA [SMC1] | 2.59 ± 0.11 | 2.84 ± 0.12 | 2.81 ± 0.29 | 2.17 ± 0.083 |
| ALIENWAADSVSSRVRG [FAS1] | 3.45 ± 0.12 | 3.1 ± 0.14 | 2.84 ± 0.082 | 3.34 ± 0.075 |
| PAITIEKLKQFSWISVV [SIR3] | 1.16 ± 0.05 | 1.45 ± 0.055 | 1.24 ± 0.094 | 1.13 ± 0.035 |
| LHLANEHGLQITHTENY [BRN1] | 2.71 ± 0.13 | 2.79 ± 0.13 | 2.68 ± 0.15 | 2.76 ± 0.068 |
| LPGTEKGRKTNKYANND [CSL4] | 3.22 ± 0.12 | 3.5 ± 0.13 | 3.2 ± 0.072 | 3.41 ± 0.19 |
| EDLFETISQALLNAADR [PUP3] | 2.81 ± 0.12 | 2.01 ± 0.089 | 1.89 ± 0.16 | 1.92 ± 0.067 |
| GGSNYMSNLPFGLGYGD [RPC31] | 2.83 ± 0.28 | 3.15 ± 0.19 |  | 3.16 ± 0.18 |
| VKKPHRYKPGTVALREI [HHT1] | 3.15 ± 0.14 | 3.17 ± 0.1 | 2.75 ± 0.094 | 3.25 ± 0.12 |
| FEAQIDSVEFIFQAKRN [RPN10] | 2.32 ± 0.11 | 2.67 ± 0.082 | 2.45 ± 0.13 | 2.66 ± 0.1 |
| IEIMGILMGFTLKDNIV [RRI1] | 2.46 ± 0.097 | 2.15 ± 0.076 | 2.81 ± 0.12 | 2.55 ± 0.083 |
| EEAKEEVTEEQAEATEW [RPS0A] | 3.48 ± 0.12 | 3.49 ± 0.1 | 3.02 ± 0.13 | 3.64 ± 0.091 |
| VDINRLKKGEVSLGTSI [PRE3] | 2.21 ± 0.098 | 1.55 ± 0.063 | 2.11 ± 0.081 | 1.33 ± 0.06 |
| TNIHEPQYINYSSIPSL [SSN2] | 2.89 ± 0.23 | 2.46 ± 0.14 |  |  |
| NNNDNNNSNTVASSTNF [SWI1] | 2.92 ± 0.032 | 3.089 ± 0.03 | 2.94 ± 0.031 | 3.021 ± 0.028 |
| VKVQPEGKYIVDVAKDI [RPT6] | 3.35 ± 0.12 | 3.14 ± 0.17 | 3.29 ± 0.038 | 3.16 ± 0.11 |
| NIDTITDAMTESQPKQT [MCD1] | 2.71 ± 0.14 | 3.02 ± 0.11 | 3 ± 0.076 | 3.32 ± 0.087 |
| IVKVFHGAFMDIIWLQR [RRP6] | 2.1 ± 0.056 | 1.53 ± 0.047 | 1.32 ± 0.073 | 1.18 ± 0.033 |
| FLSPYISTHLKTICNLL [IRR1] | 1.57 ± 0.05 | 1.76 ± 0.065 | 1.69 ± 0.1 | 1.29 ± 0.038 |
| LTLQEDYIKDEQRHLKR [RPT3] | 3.43 ± 0.11 | 3.18 ± 0.081 | 3.14 ± 0.085 | 3.32 ± 0.07 |
| AVAHHTDCKFIRVSGAE [RPT6] | 3.04 ± 0.13 | 3.21 ± 0.16 | 3.19 ± 0.14 | 2.92 ± 0.11 |
| DKGAVGPNNFIWPAEDA [MED4] | 3.51 ± 0.25 | 3.43 ± 0.24 |  | 3.23 ± 0.15 |
| TDAHTPLARNYIKSMDL [RPR2] | 2.67 ± 0.044 | 2.73 ± 0.044 | 2.68 ± 0.041 | 2.86 ± 0.032 |
| LLLSPDQWYCIDKLEDL [ITC1] | 3.06 ± 0.11 | 3.4 ± 0.11 | 3.22 ± 0.097 | 2.48 ± 0.077 |
| QQQQQQNNSTGSSSIIY [SSN2] | 2.65 ± 0.07 | 2.99 ± 0.062 | 2.69 ± 0.091 | 2.79 ± 0.065 |
| QRLVTPQRLQRKRHQRA [RPS6A] | 2.64 ± 0.059 | 3.13 ± 0.05 | 3.23 ± 0.039 | 3.09 ± 0.035 |

| Sequence | protein stability index (doa10∆) | protein stability index (pdr5∆) | protein stability index (san1∆) | protein stability index (ubr1∆) |
| --- | --- | --- | --- | --- |
| RRILAAAAAAAAAVSGN [SSN3] | 1.41 ± 0.12 | 1.26 ± 0.1 | 1.06 ± 0.26 | 1.59 ± 0.094 |
| STPGGGSVFNMNGNTNA [YOR098C/NUP1] | 2.87 ± 0.098 | 3.6 ± 0.2 |  | 3.15 ± 0.15 |
| IIELPNEKFEIELLSLD [SRB4] | 2.68 ± 0.056 | 2.99 ± 0.066 | 2.84 ± 0.052 | 2.68 ± 0.048 |
| YIEDGRNPDIYTREFVE [NUT2] | 3.39 ± 0.066 | 3.38 ± 0.054 | 3.13 ± 0.044 | 3.33 ± 0.04 |
| YRKTEGIFEKAKAKAVT [YMR153W/NUP53] | 2.56 ± 0.09 | 2.54 ± 0.12 | 2.65 ± 0.13 | 2.48 ± 0.075 |
| ELESITESITHDSSNGL [NUT1] | 2.95 ± 0.1 | 3.27 ± 0.074 | 3.25 ± 0.051 | 3.2 ± 0.067 |
| NSASSAPTPAAPGASVP [SWI1] | 3.04 ± 0.063 | 3.16 ± 0.056 | 3.21 ± 0.057 | 3.03 ± 0.055 |
| TMFTAEQSELLKAQITS [SNF2] | 2.19 ± 0.046 | 2.5 ± 0.056 | 2.57 ± 0.058 | 2.49 ± 0.036 |
| GTWSAKEAVFKSLGVKS [FAS2] | 2.94 ± 0.088 | 3.34 ± 0.089 | 3.23 ± 0.1 | 2.88 ± 0.094 |
| RDLGDDRVFNVPTIGVV [YJR042W/NUP85] |  |  | 3.41 ± 0.19 |  |
| GAIKPFTPKLIYDFITL [ECM29] | 1.73 ± 0.081 | 1.84 ± 0.098 | 1.87 ± 0.3 | 1.36 ± 0.062 |
| MAMNITPRLYTDRSRDF [RPB2] | 2.93 ± 0.089 | 3 ± 0.087 | 2.96 ± 0.096 | 3.2 ± 0.087 |
| ENISLAEFILKNRSTIF [BRR2] | 2.77 ± 0.082 | 2.13 ± 0.082 | 1.67 ± 0.11 | 1.88 ± 0.054 |
| PGFQLPNRITLTDHRKE [SRB8] | 2.79 ± 0.079 | 2.98 ± 0.084 | 3.14 ± 0.069 | 3.22 ± 0.067 |
| ENCLNNDPEILKKIASI [SWI1] | 2.48 ± 0.11 | 2.08 ± 0.074 | 2.48 ± 0.1 | 2.71 ± 0.092 |
| YTEQFQHYKNNSISSQP [SSN2] | 2.76 ± 0.14 | 2.95 ± 0.11 | 3.09 ± 0.15 | 2.98 ± 0.1 |
| KDTNDHVDKRTKIDQEA [ISW2] | 2.6 ± 0.047 | 2.62 ± 0.048 | 2.77 ± 0.051 | 2.57 ± 0.036 |
| ILYYDVLFITPDIVGHE [BRR2] | 2.29 ± 0.058 | 2.49 ± 0.052 | 2.61 ± 0.053 | 2.84 ± 0.057 |
| SAPPPALPHVEINQVSL [RGR1] | 2.46 ± 0.074 | 2.96 ± 0.11 | 2.48 ± 0.09 | 2.33 ± 0.052 |
| VHTIIAGLDEDGKGAVY [PRE7] | 3.63 ± 0.16 | 3.41 ± 0.099 | 3.35 ± 0.093 | 3.32 ± 0.093 |
| IFLHSLPVKEFQIIDTL [RPS2] | 2.49 ± 0.12 | 2.54 ± 0.089 | 2.44 ± 0.073 | 2.49 ± 0.061 |
| AIRRDARYNWICDPVHK [RPL15A] | 2.71 ± 0.1 | 3.37 ± 0.12 | 3.25 ± 0.11 | 3.18 ± 0.076 |
| LEKDAADCQAELTKTKS [YIL149C/MLP2] | 2.94 ± 0.13 | 2.76 ± 0.26 | 2.75 ± 0.18 | 2.87 ± 0.1 |
| PEESKGSFKYITARSAF [SWP82] | 2.85 ± 0.068 | 3.04 ± 0.076 | 3.1 ± 0.053 | 3.15 ± 0.06 |
| KDKFNQIPLHRAASVGS [NAS6] | 1.81 ± 0.074 | 2.13 ± 0.079 | 2.05 ± 0.15 | 2.26 ± 0.082 |
| GTFKSTLDREYITLKAT [QCR2] | 1.39 ± 0.065 | 1.44 ± 0.044 | 1.51 ± 0.099 | 1.49 ± 0.047 |
| FDRLVAGQIPTGWNAKT [FAS2] | 2.15 ± 0.18 |  |  |  |

— the supplement of paper PMC9732359
